Experimental data taken from the nanobody polyreactivity screen of Harvey et al. (2022).

assay: yeast display, Sf9 membrane polyspecificity reagent, FACS + sequencing; frameworks hold sequencing errors
Outline: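 Using colony PCR, genes from sorted yeast display clones were amplified, then sequenced on MiSeq at 2 × 250 and filtered by CDR length. The clones had been stained with 10% biotinylated, detergent-solubilized Sf9 membrane reagent for 1 hour at 4 °C and sorted by FACS into low and high (top ~1%) gates on anti-HA and streptavidin fluorescence. Polyreactivity labels come from the gate of origin.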

| Sequence | polyreactivity (PSR sort gate) |
| --- | --- |
| QVQLVESGGGLVQAGGSLRLSCAASGRTFTKYAMGWYRQAPGKERELVAAISNSGGSTFYADSVKGRFTISRDNAKNTVYLQMNSLKPEDTAVYYCAVDLGDTQYVPFDYWGQGTQVTVSS | low polyreactivity |
| QVQLVESGGGLVQAGGSLRLSCAASGRTFTLYTMGWYRQAPGKERELVAAIRYSGGSTYYADSVKGRFTISRDNAKNTVYLHMNSLKPEDTAVYYCAARSYYYGFLYRYDYWGQGTQVTVSS | low polyreactivity |
| QVQLVESGGGLVQAGGSLRLSCAASGRTFTNYAMGWYRQAPGKERELVAAAITVGGGRTYYADSVKGRFTISRDNAKNTVYLQMNSLKPEDTAVYYCATDFGTYWYEYWGQGTQVTVSS | high polyreactivity |
| QVQLVESGGGLVQAGGSLRLSCAASGRTFTRNAMGWYRQAPGKERELVAVITSSGRTNYADSVKGRFTISRDNAKKTVYLQMNSLKPEDTAVYYCNKVSARYPYPLYDYWGQGTQVTVSS | high polyreactivity |
| QVQLVESGGGLVQAGGSLRLSCAASGRTFTRNAMGWYRQAPGKERELVAVITSSGRTNYADSVKGRFTISRDNAKNTVYLQMNSLKPEDTAVYYCNKVSARYPYPLYDYWGQGTQVTVSS | high polyreactivity |
| QVQLVESGGGLVQAGGSLRLSCAASGRTFTRYAMGLYRQAPGKERELVAGITGRAGSTYYADSVKGRFTISRDNAKNTVYLQMNSLKPEDTAVYYCAADAGYRRSSLYEYDYWGHGTQVTVSS | low polyreactivity |
| QVQLVESGGGLVQAGGSLRLSCAASGRTFTRYAMGWYRQAPGKERELVAAISRSGGSTHYADSVKGRFTISRDNAKNTVYLQMNSLKPEDTAVYFCNTVGYRGRSNSRFYYWGQGTQVTVSS | high polyreactivity |
| QVQLVESGGGLVQAGGSLRLSCAASGRTFTRYARGWYRQAPGKERELVAVISWSVGSTYYADSVKGRFTISRDNAKNTVYLQMNSLKPEDTAVYYCNSDVLSWSQEYDYWGQGTQVTVSS | low polyreactivity |
| QVQLVESGGGLVQAGGSLRLSCAASGRTFTRYVMGWYRQAPGKESELVAVISSGGRTYYADSVKGRFTISRDNAKNTVYLQMNSLKPEDTAVYYCAAVTHPAWAVEYDYWGQGTQVTVSS | high polyreactivity |
| QVQLVESGGGLVQAGGSLRLSCAASGRTFTSNAMGWSRQAPGKERELVAAIDDGGSTNYADSVKGRFTISRDNAKNTVYLQMNSLKPEDTAVYYCNAPITWQYRGFRRRFDYWGQGTQVTVSS | low polyreactivity |
| QVQLVESGGGLVQAGGSLRLSCAASGRTFTSYAMGWYRQAPGKESELVAAIRRSGGSTYADSVKGRFTISRDNAKNTVYLQMNSLKPEDTAVYYCAAGHYWFTKGYHTLYDMDYWGQGTQVTVSS | high polyreactivity |
| QVQLVESGGGLVQAGGSLRLSCAASGRTFTTIAMGWYRQAPGKERELVSAINSGGSTNYADSVKGRFTISRDNAKNTVYLQMNSLKPEDTAVYYCAKRQRDYSSVFDVDYWGQGTQVTVSS | low polyreactivity |
| QVQLVESGGGLVQAGGSLRLSCAASGRTFTTYAMGWYRQAPGKERELVAAISDTGGITYYADSVKGRFTISRDNAKNTVYLQMNSLKPEDTAVYYCNAESYRAPYDYWGQCTQVTVSS | low polyreactivity |
| QVQLVESGGGLVQAGGSLRLSCAASGRTFTVYAMGWNRQAPGKEREFVATSSWSGGRTYYADSVKGRFTISRDNAKYTVYLQMNSLKPEDTAVYYCAAQEYTTRFYFNRDYWGQGTQVTVSS | low polyreactivity |
| QVQLVESGGGLVQAGGSLRLSCAASGRTFTWYAMGWYRQAPGKERELVAVISRGGSTNYADSVKGRFTISRDNAKNTVYLQMKSLKPEDTAVYYCAARGLYRARLKLDYWGQGTQVTVSS | high polyreactivity |
| QVQLVESGGGLVQAGGSLRLSCAASGRTFTYNTMGWYRQAPGKERELVAAISSSGGSTYYADSVKGRFTISRDNAKNSVYLQMNSLKPEDTAVYYCAKRYFSSSRYYYWGQGTQVTVSS | high polyreactivity |
| QVQLVESGGGLVQAGGSLRLSCAASGRTFTYYAMGWYIHAPGKERELVAAITWSGGSTYYADSVKGRFTISRDNAKNSVYLHMNSLKPEDTAVYYCNKTYRQGWSWVSYRSYGSGEGYWGQGTQVTVSS | high polyreactivity |
| QVQLVESGGGLVQAGGSLRLSCAASGRTFTYYAMGWYRQAPGKERELVAAIRYTGGSTHYADSVKGRFTISRDNAKNTVYLQIHSLKPEDTAVYYCGARRAYTRGGTVYFGYYYWGQGTQVTVSS | high polyreactivity |
| QVQLVESGGGLVQAGGSLRLSCAASGRTFTYYTMGWYRQAPGKERELVAAITWSGGRTYYADSVKGRFTISRDNAKYTVYLQMNSLKPEDTAVYYCAKPPQGTYDYWGQGTQVTVSS | low polyreactivity |
| QVQLVESGGGLVQAGGSLRLSCAASGRTFVANVKGWYRQAPGKERELVAGISTRGGRTYYADSVKGRFTISRDNAKNTVYLQMNSLKPEDTAVYYCAVRHYRDSTPRGAYQRYDYWGQGTQVTVSS | low polyreactivity |
| QVQLVESGGGLVQAGGSLRLSCAASGRTFVCNAMGWYRQAPGKERELVAAISSSGTATYYADSVKGRFTISRDNAKNTVYLQMNSLKPEDTAVYYCAKDLLYQPTIRDYWGQGTQVTVSS | low polyreactivity |
| QVQLVESGGGLVQAGGSLRLSCAASGRTFVGNAMGWYRQAPGKERELVADITWSGDITYYADSVKGRFTISRDNAKNTVYLQMHSLKPEDTAVYYCAADYHRRRTDYDYWGQGTQVTVSS | low polyreactivity |

| Sequence | polyreactivity (PSR sort gate) |
| --- | --- |
| QVQLVESGGGLVQAGGSLRLSCAASGRTFVGNAMGWYRQAPGKERELVATITRRGGSTYYADSVKGRFTISRDNAKNTVYLQMNSLKPEDTAVYYCAAGSQPGRKYYYWGQGTQVTVSS | high polyreactivity |
| QVQLVESGGGLVQAGGSLRLSCAASGRTFVGNAMGWYRQAPGKERELVAVITGSGARTYYADSVKGRFTISRDNAKNTVYLQMNSLKPEDTAVYYCAAAGYSGQYRSYYWGQGTQVTVSS | high polyreactivity |
| QVQLVESGGGLVQAGGSLRLSCAASGRTFVGYAMGWYRQAPGKERELVAAIRNGGGTYYADSVKGRFTISRDNAKNTVYLQMNSLKPEDTAVYYCAARLPRSLKVGYYWGQGTQVTVSS | high polyreactivity |
| QVQLVESGGGLVQAGGSLRLSCAASGRTFVGYAMGWYRQAPGKERELVAAISTSGGRTYYADSVKGRFTISRDNEKYTVYLQMNSLKPEDTAVYYCAAGFRASIGYVTEYYWGQGTQVTVTS | high polyreactivity |
| QVQLVESGGGLVQAGGSLRLSCAASGRTFVGYAMGWYRQPPGKERELVAAISGSGVRTYYADSVKGRFTISRDNAKNTGYLQMNSLKPEDTAVYYCADRRYRRWYDYWGQGTQVTVSS | high polyreactivity |
| QVQLVESGGGLVQAGGSLRLSCAASGRTFVGYVMGWYRQAPGKERELVASITYTGTSTYYADSVKGRFTISRDNAKNTVYLQMNSLKPEDTAVYYCAAQYYLYRRGYIWKYDYWGQGTQVTVSS | high polyreactivity |
| QVQLVESGGGLVQAGGSLRLSCAASGRTFVHYTMGWYRQAPGKERELVAAISGTGTSTYYADSVKGRFTISRDNAKNTVYLQMNSLKPEDTAVYDCARDPYFGFLIGYPRRDYWGQGTQVTVSS | low polyreactivity |
| QVQLVESGGGLVQAGGSLRLSCAASGRTFVHYTMGWYRQAPGKERELVATISTSGGSTSYADSVKGRFTISRDNAKNTVYVQMNSLKPEDTAVYYCAARWYFPDRVKYVYWGQGTQVTVSS | low polyreactivity |
| QVQLVESGGGLVQAGGSLRLSCAASGRTFVNYAMGWYRQAPGKERELVAAISGGGGTNYADSVKGRFTISRDNAKNTVYLHMNSLKPQDTAVYYCAADTNGYEFDYWGQGTLVTVSS | low polyreactivity |
| QVQLVESGGGLVQAGGSLRLSCAASGRTFVNYAMGWYRQAPWKERELVAAITWSSGRTYYADSVKGRFTISRDNAKNTVYLQMNSLKPEDTAVYYCAAVGRYSGYDYWGQGTQVTVSS | high polyreactivity |
| QVQLVESGGGLVQAGGSLRLSCAASGRTFVNYAMGWYSQAPGKERELVAAISWTDDDTYYADSVKGRFTISRDNAKNTVYLQMNSLKPEDTAVYYCATDYDSYDYWGQGTQVTVSS | low polyreactivity |
| QVQLVESGGGLVQAGGSLRLSCAASGRTFVNYTMGWYRQAPGKEWELVAAIRYRDGSTYYADSVKGRFTISRDYAKNTVYLQMNSLKPEDTAVYYCNTRITQVGDYIYDYWGQGTQVTVSS | low polyreactivity |
| QVQLVESGGGLVQAGGSLRLSCAASGRTFVPDVMGWYRQAPGKERELVAAITSGGSTYYADSVKGRFTISRDNAKNTVYLQMNSLKPEDTAVYYCAKRTSWKYGYWGQGTQVTVSS | high polyreactivity |
| QVQLVESGGGLVQAGGSLRLSCAASGRTFVPNALGWYRQAPGKERELVAALSWSGDSTYYADSVKGRFTISRDNAKNTVYLQMNSLKPEDTAVYYCAADPFFGVSIGGLKYHFDYWGQGTQVTVSS | low polyreactivity |
| QVQLVESGGGLVQAGGSLRLSCAASGRTFVPNAMGWYRQAPGKERELVAAISDSGGSTYYADSVKGRFTISRDNAKNTVYLQMNSLKPEDTAVYYCATDVTTYVGWEHGFNYWGQGTQVTVSS | low polyreactivity |
| QVQLVESGGGLVQAGGSLRLSCAASGRTFVPYAMGWYIQAPGKEREFVAAISSRVGSTYYADSVKGRFTISRDNAKNTVYLQMKSLKPEDTAVYYCNAPFKPAGFYSAWKYDYWGQGTQVSVSS | low polyreactivity |
| QVQLVESGGGLVQAGGSLRLSCAASGRTFVPYAMGWYRQAHGKERELVAAIDKSDGSTYYADSVKGRFTISRDNAKNTVYLKMNSLKPEDSAVYFCNAEGYTYRYYTIYNYCGQGTQVTVSS | high polyreactivity |
| QVQLVESGGGLVQAGGSLRLSCAASGRTFVPYAMGWYRQAPGKEREFVAAISSRVGSTYYADSVKGRFTISRDNAKNTVYLQMNSLKQEDTAVYYCNAPFKPAGFYSAWKYDYWGQGTQVTVSS | low polyreactivity |
| QVQLVESGGGLVQAGGSLRLSCAASGRTFVPYAMGWYRQAPGKERELVAAISSGGDTNYADSVKGRFTISRDNAKNTVYLQMNSLKPEDTAVYYCAVGGAGSDDYLGQGTQVTVSS | low polyreactivity |
| QVQLVESGGGLVQAGGSLRLSCAASGRTFVPYAMGWYRQAPGKERELVASITRSGGRTYYADSVKGRFTISRDNAKNTVYLQMNSLKPEDTAVYYCAVDWSVYYRTYDYWGQGTQVTVSS | high polyreactivity |
| QVQLVESGGGLVQAGGSLRLSCAASGRTFVPYAMGWYRQAPGKERELVASITWRGGRTYYADSVKGRFTISRDNAKNTVYLQMNSLKPEDTAVYYCAAVGGYASYFHLYYYWGQGTQVTVSS | high polyreactivity |
